Test results taken from US20240026032A1 (Alexion, published 2024).

Assays:
[1] = target: T1, Programmed Death 1 (PD-1) Fc chimera (R&D Systems, Catalog # 1086-PD-050) (human, UniProt Q15116 25-167); assay: BLI (Octet), PD-1 Fc captured on anti-human Fc tips, TPP-999 at 10 µg/mL in PBS as analyte
T1 construct: Bought reagent; not shown: Fc part of the bought chimera (captured by anti-human Fc tips)
Experimental: (§1) Final dissociation in PBS was performed in the last step on the Bio-Layer Interferometry (BLI) data.

[2] = target: T1, Programmed Death 1 (PD-1) Fc chimera …; assay: BLI, PD-1 Fc loaded on anti-human IgG tips, fusion as analyte, dissociation in PBS
[3] = target: T1, Programmed Death 1 (PD-1) Fc chimera …; assay: BLI (Octet), PD-1 Fc captured on anti-human Fc tips, TPP-1001 at 10 µg/mL in PBS as analyte
Experimental: as §1

[4] = target: T1, Programmed Death 1 (PD-1) Fc chimera …; assay: BLI (Octet), PD-1 Fc captured on anti-human Fc tips, TPP-993 in PBS as analyte
Experimental: as §1

[5] = target: T1, Programmed Death 1 (PD-1) Fc chimera …; assay: BLI (Octet Red), TPP-985 loaded on anti-human IgG Fc tips, DLAT 10 µg/mL bound first, then PD-1 Fc
Experimental: (§2) Antibodies and antibody fusions were diluted to 16 μg/mL in PBS and loaded onto anti-human IgG Fc tips (ForteBio, Catalog # 18-5064). Human DLAT recombinant protein (ProSpec, Catalog # ENZ-082) was diluted into PBS to 10 μg/mL. […] Finally, a dissociation step in PBS was performed to determine dissociation from the bound antibodies.

[6] = target: T1, Programmed Death 1 (PD-1) Fc chimera …; assay: BLI (Octet Red), TPP-990 loaded on anti-human IgG Fc tips, DLAT 10 µg/mL bound first, then PD-1 Fc
Experimental: as §2

T1 sequence (Q15116 25-167, change not shown): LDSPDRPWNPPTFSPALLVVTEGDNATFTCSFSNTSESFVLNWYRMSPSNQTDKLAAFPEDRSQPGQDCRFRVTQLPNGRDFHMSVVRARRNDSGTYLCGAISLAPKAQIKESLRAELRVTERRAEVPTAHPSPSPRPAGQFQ

B1: TPP-999 (PD2 with PD-L1 fused to the C-terminus of the light chain) (Fab)
heavy: EVQLVESGGGLVKPGGSLRLSCAASGFTFGSYSMTWVRQAPGKGLEWVSFISTVSTYIYYPDSVKGRFTISRDNAKNSLYLQMNSLRAEDTAVYYCARVSGRGSAARDGEKGTYYYYMDVWGKGTTVTVSSASTKGPSVFPLAPSSKSTSGGTAALGCLVKDYFPEPVTVSWNSGALTSGVHTFPAVLQSSGLYSLSSVVTVPSSSLGTQTYICNVNHKPSNTKVDKRVEPKSC
light: SSELTQDPAVSVALGQTVTITCQGDSLRSYYASWYQQKPGQAPVLVIFGKNNRPSGIPDRFSGSRSGNTASLTITGAQAEDEADYFCDSRDSSANHWVFGGGTKLTVLQPKAAPSVTLFPPSSEELQANKATLVCLISDFYPGAVTVAWKADSSPVKAGVETTTPSKQSNNKYAASSYLSLTPEQWKSHKSYSCQVTHEGSTVEKTVAPTECSGGSSRSSSSGGGGSGGGGFTVTVPKDLYVVEYGSNMTIECKFPVEKQLDLAALIVYWEMEDKNIIQFVHGEEDLKVQHSSYRQRARLLKDQLSLGNAALQITDVKLQDAGVYRCMISYGGADYKRITVKVNA
notes: Fab fusion with the human PD-L1 variable-like domain
**Q.** Does B1 bind [1]?
**A.** binds

B2: TPP-1986 (murine IgG1 Fc Silent, N-terminus_PDL1_LC_PD5) (antibody)
heavy: QLQLQESGPGLVKPSETLSLTCIVSGGSISRNSYYWGWIRQPPGKGLEWIGSIVYSGSTYHQPSLKSRVTIFLDTSKNQFFLKLTSVTAADTAVYYCARGTRATTWPPPIGYWGQGTLVTVSSAKTTPPSVYPLAPGSAAQTNSMVTLGCLVKGYFPEPVTVTWNSGSLSSGVHTFPAVLQSDLYTLSSSVTVPSSTWPSQTVTCNVAHPASSTKVDKKIVPRDCGCKPCICTVPEQSSVFIFPPKPKDVLMISLTPKVTCVVVDISKDDPEVQFSWFVDDVEVHTAQTKPREEQINSTFRSVSELPILHQDWLNGKEFKCRVNSAAFPAPIEKTISKTKGRPKAPQVYTIPPPKEQMAKDKVSLTCMITNFFPEDITVEWQWNGQPAENYKNTQPIMDTDGSYFVYSKLNVQKSNWEAGNTFTCSVLHEGLHNHHTEKSLSHSPGK
light: FTVTVPKDLYVVEYGSNMTIECKFPVEKQLDLAALIVYWEMEDKNIIQFVHGEEDLKVQHSSYRQRARLLKDQLSLGNAALQITDVKLQDAGVYRCMISYGGADYKRITVKVNAGGSSRSSSSGGGGSGGGGQSVLTQPPSVSAAPGQKVTVSCFGSSSNIGNYFASWYQQLPGAAPRLLIYGNNERPSGIPDRFSGSKSGTSATLVITGLQTGDEAAYYCATWDSSLSAVVFGGGTKLTVLGQPKSSPSVTLFPPSSEELETNKATLVCTITDFYPGVVTVDWKVDGTPVTQGMETTQPSKQSNNKYMASSYLTLTARAWERHSSYSCQVTHEGHTVEKSLSRADCS
notes: also called huPDL1; Human PDL1_Mouse PD5
**Q.** Does B2 bind [2]?
**A.** binds

B3: TPP-1001 (PD2 with PD-L1 fused to the N-terminus of the light chain) (Fab)
heavy: EVQLVESGGGLVKPGGSLRLSCAASGFTFGSYSMTWVRQAPGKGLEWVSFISTVSTYIYYPDSVKGRFTISRDNAKNSLYLQMNSLRAEDTAVYYCARVSGRGSAARDGEKGTYYYYMDVWGKGTTVTVSSASTKGPSVFPLAPSSKSTSGGTAALGCLVKDYFPEPVTVSWNSGALTSGVHTFPAVLQSSGLYSLSSVVTVPSSSLGTQTYICNVNHKPSNTKVDKRVEPKSC
light: FTVTVPKDLYVVEYGSNMTIECKFPVEKQLDLAALIVYWEMEDKNIIQFVHGEEDLKVQHSSYRQRARLLKDQLSLGNAALQITDVKLQDAGVYRCMISYGGADYKRITVKVNAGGSSRSSSSGGGGSGGGGSSELTQDPAVSVALGQTVTITCQGDSLRSYYASWYQQKPGQAPVLVIFGKNNRPSGIPDRFSGSRSGNTASLTITGAQAEDEADYFCDSRDSSANHWVFGGGTKLTVLQPKAAPSVTLFPPSSEELQANKATLVCLISDFYPGAVTVAWKADSSPVKAGVETTTPSKQSNNKYAASSYLSLTPEQWKSHKSYSCQVTHEGSTVEKTVAPTECS
notes: as for B1
**Q.** Does B3 bind [3]?
**A.** binds

B4: TPP-993 (PD2 Fab having no PD-L1 domain and no linker) (Fab)
heavy: EVQLVESGGGLVKPGGSLRLSCAASGFTFGSYSMTWVRQAPGKGLEWVSFISTVSTYIYYPDSVKGRFTISRDNAKNSLYLQMNSLRAEDTAVYYCARVSGRGSAARDGEKGTYYYYMDVWGKGTTVTVSSASTKGPSVFPLAPSSKSTSGGTAALGCLVKDYFPEPVTVSWNSGALTSGVHTFPAVLQSSGLYSLSSVVTVPSSSLGTQTYICNVNHKPSNTKVDKRVEPKSC
light: SSELTQDPAVSVALGQTVTITCQGDSLRSYYASWYQQKPGQAPVLVIFGKNNRPSGIPDRFSGSRSGNTASLTITGAQAEDEADYFCDSRDSSANHWVFGGGTKLTVLQPKAAPSVTLFPPSSEELQANKATLVCLISDFYPGAVTVAWKADSSPVKAGVETTTPSKQSNNKYAASSYLSLTPEQWKSHKSYSCQVTHEGSTVEKTVAPTECS
**Q.** Does B4 bind [4]?
**A.** no binding (tested: 10 µg/mL)

B5: TPP-985, human IgG2/4 PD5 antibody (antibody)
heavy: QLQLQESGPGLVKPSETLSLTCIVSGGSISRNSYYWGWIRQPPGKGLEWIGSIVYSGSTYHQPSLKSRVTIFLDTSKNQFFLKLTSVTAADTAVYYCARGTRATTWPPPIGYWGQGTLVTVSSASTKGPSVFPLAPCSRSTSESTAALGCLVKDYFPEPVTVSWNSGALTSGVHTFPAVLQSSGLYSLSSVVTVPSSNFGTQTYTCNVDHKPSNTKVDKTVERKCCVECPPCPAPPVAGPSVFLFPPKPKDTLMISRTPEVTCVVVDVSQEDPEVQFNWYVDGVEVHNAKTKPREEQFNSTYRVVSVLTVLHQDWLNGKEYKCKVSNKGLPSSIEKTISKAKGQPREPQVYTLPPSQEEMTKNQVSLTCLVKGFYPSDIAVEWESNGQPENNYKTTPPVLDSDGSFFLYSRLTVDKSRWQEGNVFSCSVMHEALHNHYTQKSLSLSLGK
light: QSVLTQPPSVSAAPGQKVTVSCFGSSSNIGNYFASWYQQLPGAAPRLLIYGNNERPSGIPDRFSGSKSGTSATLVITGLQTGDEAAYYCATWDSSLSAVVFGGGTKLTVLGQPKANPTVTLFPPSSEELQANKATLVCLISDFYPGAVTVAWKADGSPVKAGVETTKPSKQSNNKYAASSYLSLTPEQWKSHRSYSCQVTHEGSTVEKTVAPTECS
notes: also called PD5_IgG2-4; anti-DLAT IgG2-4 antibody with no PD-L1 variable-like domain
**Q.** Does B5 bind [5]?
**A.** no binding (tested: 12.5 µg/mL)

B6: TPP-990, human IgG2/4 PD5 antibody, C-terminus PD-L1 LC (antibody)
heavy: QLQLQESGPGLVKPSETLSLTCIVSGGSISRNSYYWGWIRQPPGKGLEWIGSIVYSGSTYHQPSLKSRVTIFLDTSKNQFFLKLTSVTAADTAVYYCARGTRATTWPPPIGYWGQGTLVTVSSASTKGPSVFPLAPCSRSTSESTAALGCLVKDYFPEPVTVSWNSGALTSGVHTFPAVLQSSGLYSLSSVVTVPSSNFGTQTYTCNVDHKPSNTKVDKTVERKCCVECPPCPAPPVAGPSVFLFPPKPKDTLMISRTPEVTCVVVDVSQEDPEVQFNWYVDGVEVHNAKTKPREEQFNSTYRVVSVLTVLHQDWLNGKEYKCKVSNKGLPSSIEKTISKAKGQPREPQVYTLPPSQEEMTKNQVSLTCLVKGFYPSDIAVEWESNGQPENNYKTTPPVLDSDGSFFLYSRLTVDKSRWQEGNVFSCSVMHEALHNHYTQKSLSLSLGK
light: QSVLTQPPSVSAAPGQKVTVSCFGSSSNIGNYFASWYQQLPGAAPRLLIYGNNERPSGIPDRFSGSKSGTSATLVITGLQTGDEAAYYCATWDSSLSAVVFGGGTKLTVLGQPKANPTVTLFPPSSEELQANKATLVCLISDFYPGAVTVAWKADGSPVKAGVETTKPSKQSNNKYAASSYLSLTPEQWKSHRSYSCQVTHEGSTVEKTVAPTECSGGSSRSSSSGGGGSGGGGFTVTVPKDLYVVEYGSNMTIECKFPVEKQLDLAALIVYWEMEDKNIIQFVHGEEDLKVQHSSYRQRARLLKDQLSLGNAALQITDVKLQDAGVYRCMISYGGADYKRITVKVNA
notes: Antibody fused with the human PD-L1 variable-like domain
**Q.** Does B6 bind [6]?
**A.** no binding (tested: 12.5 µg/mL)
